The text below walks through data of publication PMC6188088.

For assay [1], the target named is TnpA^IS1535 C-terminal domain (CTD), residues 51-193 (Mycobacterium tuberculosis). In words: crystal structure; TnpA^IS1535 CTD (51-193), hanging drop, 0.3 M sodium acetate pH 5.0, 1 mM TCEP mixed with 0.2 M sodium citrate + 20% PEG3350; 2.5 Å; one dimer in the asymmetric unit.
In assay [2] the target is TnpA^IS1535 single-cysteine mutant Cys162 (three native cysteines replaced with serines) (Mycobacterium tuberculosis). The assay can be described thus: cross-linking; disulfide cross-linking of cysteine-substituted TnpA^IS1535: oxidation with 0.2 mM diamide at 4°C overnight in 25 mM HEPES pH 7.5, 1 M Na acetate, 20% glycerol; non-reducing SDS-PAGE.

For orientation: stoichiometry N means a count of units in the complex or per binding partner. For the substance “TnpA^IS1535 C-terminal domain (CTD), residues 51-193 (domain or fragment)”, in assay [1], the stoichiometry N is 2.

On to “TnpA^IS1535 single-cysteine mutant Cys162 (three native cysteines replaced with serines) (enzyme)”, for which, in assay [2], the percent disulfide-linked dimers was determined as 40%.
